Laboratory results taken from paper PMC4860851 (Cell Discovery, 2015).

B1: Ncr1 Ig fusion protein (extracellular part of mouse Ncr1 fused to human IgG1) (Fc fusion, UniProt Q8C567 17-255, looked up)
chain: QRINTEKETLPKPIIWAKPSIMVTNGNSVNIWCQGAQSASEYQLYFEGSFFALERPKPSRSMNKVRFFISQMTSHTAGIYTCFYQSGELWSKSSNPLKLVVTGLYDTPNLWVYPRPEVTLGENVTFFCQLKTATSKFFLLKERGSNHIQNKYGNIQAEFPMGPVTRAHRGTYRCFGSYNDYAWSFPSEPVTLLITGGVENSSLAPTDPTSSLDYWEFDLSTNESGLQKDSAFWDHTTQN
notes: Carries N-linked glycans (N139, N216, N238) and putative O-linked glycans (T222, T225); also called WT Ncr1 Ig; WT Ncr1
B2: Ncr1: Ncr1 T222A (protein)
parent chain: MLPTLTALLCLGLCLSQRINTEKETLPKPIIWAKPSIMVTNGNSVNIWCQGAQSASEYQLYFEGSFFALERPKPSRSMNKVRFFISQMTSHTAGIYTCFYQSGELWSKSSNPLKLVVTGLYDTPNLWVYPRPEVTLGENVTFFCQLKTATSKFFLLKERGSNHIQNKYGNIQAEFPMGPVTRAHRGTYRCFGSYNDYAWSFPSEPVTLLITGGVENSSLAPTDPTSSLDYWEFDLSTNESGLQKDSAFWDHTTQNLIRIGLACIILITLVWLLTEDWLSKRKDHEEANRLTNWECRRRWRMQHYFEEEQRNAISMMELKATPGAL
B3: Ncr1: Ncr1 T222 225A (protein)
parent chain: B2 parent chain
B4: Ncr1: Ncr1 N139 216 238A (protein)
parent chain: B2 parent chain
B5: Ncr1: Ncr1 T225A (protein)
parent chain: B2 parent chain

Experiments:
[1] = target: Recombinant H1 HA with His Tag from Influenza A/Brisbane/59/2007 H1N1; assay: SPR; details: read off a plot
[2] = target: T1, HA Ig (extracellular part of the HA protein of PR8 influenza fused to human IgG1), biotin-conjugated (influenza A/Puerto Rico/8/34 H1N1 (PR8), UniProt P03452 18-528, biotin); assay: far-Western, overlay or dot blot; details: both partners purified
T1 construct: also called biotinylated HA Ig

[3] = FACS surface staining of BW transfectants; details: glycan lost; control: WT Ncr1 zeta
[4] = recognition of fusion proteins by eight anti-Ncr1 mAbs; details: glycan lost; control: WT Ncr1 Ig
[5] = full-length expression in HEK 293T (data not shown); details: glycan lost; control: WT full-length Ncr1
[6] = FACS, lentiviral expression in IL2-activated human NK cells; details: glycan lost; control: WT full-length Ncr1

Molecule	response ([1]; parent: est. 190)	response ([1]; parent: est. 380)	response ([1]; parent: est. 560)	response ([1]; parent: est. 700)	binding result [2]	expression_or_secretion [3]	stability_or_folding [4]	localisation_or_trafficking [5]	expression_or_secretion [6]
Ncr1 Ig fusion protein (extracellular part of mouse Ncr1 fused to human IgG1) (from UniProt Q8C567) T222A; T225A	35 RU	85 RU	150 RU	210 RU	–	–	–	–	–
B1	–	–	–	–	binds	–	–	–	–
B2	–	–	–	–	–	no change	no change	no change	–
B3	–	–	–	–	–	no change	no change	no change	no change
B4	–	–	–	–	–	decreases	no change	decreases	abolishes
B5	–	–	–	–	–	no change	no change	no change	–
